Results as given in publication PMC9951844 (Nature Communications, 2023).

Experiments:
[1] = molecular target: SARS-CoV-2 Omicron BA.1 (B.1.1.529) RBD (SARS-CoV-2 Omicron BA.1 (B.1.1.529), strain)
SARS-CoV-2 wildtype S1 = SARS-CoV-2 wildtype S1 (SARS-CoV-2 wildtype (Wuhan), UniProt P0DTC2)
[2] = molecular target: SARS-CoV-2 Beta (B.1.351) S1 (SARS-CoV-2 Beta (B.1.351), strain)
[3] = molecular target: SARS-CoV-2 Delta (B.1.617.2) S1 (SARS-CoV-2 Delta (B.1.617.2), strain)
[4] = molecular target: SARS-CoV-2 Gamma (P.1) S1 (SARS-CoV-2 Gamma (P.1), strain)
[5] = molecular target: SARS-CoV-2 Kappa (B.1.617.1) spike ECD (SARS-CoV-2 Kappa (B.1.617.1), strain)
[6] = molecular target: SARS-CoV-2 Lambda (C.37) RBD (SARS-CoV-2 Lambda (C.37), strain)
S-R/Wildtype spike = S-R/Wildtype spike (SARS-CoV-2 hCoV-19/Wuhan/WIV04/2019, UniProt P0DTC2, stabilised)
[7] = molecular target: Delta spike (based on S-R/Wildtype spike) (SARS-CoV-2 Delta (B.1.617.2), L452R | T478K)
[8] = molecular target: Omicron BA.1 spike (based on S-R/Wildtype spike) (SARS-CoV-2 Omicron BA.1 (B.1.1.529), S371L | S373P | S375F | K417N)

Measured: binding result

B1: YB12-267 (antibody, V domains shown)
VH: KVQLVESGGGLIQPGGSLRLSCAASGLTVSSNYMNWVRQAPGKGLEWVSLIFSGGSTYYADSVKGRFTISRDYSKNTLYLQMNSLRAEDTAVYYCARDLMEVGGMDVWGQGTTVTVSS
VL: QSVLTQPPSASGTPGQRVTISCSGSSSYIGSIYWYQQLPGAAPKLLVFSDHKRPSGVPDRFSGSKSGTSASLAISGLQSEDEAGYYCATWDDSLNGYVFGTGTKVTVL
not listed: S-R/Wildtype spike | [7] | [8]
binds: all other assays above

B2: YB13-281 (antibody, V domains shown)
VH: EVQLVESGGGLVKPGGSLRLSCAASGFTFSSYSMNWVRQAPGKGLEWVSSISSSSSYIHYADSVKGRFTISRDNAKNSLYLQMNSLRAEDTAVYYCARVSSKDYYDRSGYLRGDYDYGMDVWGQGTTVTVSS
VL: QSVLTQPPSVSGAPGQRVTISCTGNSSNIGAAYDVHWYQQLPGTAPKLLIYGNSNRPSGVPDRFSGSKSGTSASLAITGLQAEDEADYYCQSYDSSLSGVFGGGTKLTVL
binds: all assays above

B3: YB12-269 (antibody, V domains shown)
VH: EVQLVESGGALVRPGGSLRVSCAASGITVNFNYMTWVRQGPGKGLEWVASIYPGGSTFYADSVKGRFTISRDNSKNTLYLQMTSVRDEDTALYYCARDEGPGMDVWGQGTTVTVSS
VL: QSVLTQPPSVSGAPGQRVTISCTGYSSNIEAGSDVHWYQQPPGTAPKLLIYNNNNRPSGVPDRFSGSKSGTSASLAITGLQPGDEGDYYCQSYDSRLSGYVFGTGTKVTVL
not listed: S-R/Wildtype spike | [7] | [8]
binds: all other assays above

B4: YB13-208 (antibody, V domains shown)
V domain 1: QITLKESGPTLVKPTQTLTLTCTFSGLSLSTSGVSVGWIRQPPGKAPEWLALIYWDDDKRYSPSLTSRLSITKDTSKNQVVLTMTNMDPVDTATYYCAHPRYYGDSSGYYWIWGQGTMVTVSS
V domain 2: SYELTQPPSVSVSPGQTARITCSGDALPKQYAYWYQQKPGQAPVVVMYKTSERPSGIPERFSGSSSGTTVTLTISGVQAEDEADYYCQSADSSGFYVFGTGTQVTVL
not listed: [1]
binds: all other assays above

B5: YB9-120 (antibody, V domains shown)
VH: QVQLQESGPGLVKPSGTLSLTCAVSGGSIRTTKWWSWVRQPPGKGLEWIGEIHHGGNTNYNPSLKSRVTISVDKSKNQFSLKLTSVTAADTAVYYCARDGGGVGTPLEYWGQGTLVTVSS
VL: QSGLTQPASVSGSPGQSITISCTGTISDVGAYNYVSWYQQHPGRAPKVVIYDVSERPSGTSNRFSGSKSGNTASLTISGLQAEDEADYYCSSFTNTTPVVFGGGTKLTVL
binds: all assays above

B6: YB12-197 (antibody, V domains shown)
VH: EVQLVESGGGLVQPGGSLRLSCAASGFTVSSNYMNWVRQAPGKGLEWVSVIYSGGSTFYADSVKGRFTISRDNSKNTLYLQMNSLRAEDTAVYYCARDAYNYGANWGQGTLVTVSS
VL: HLVLTQSPSASASLGASVKLTCTLSSGHSNNAIAWHQQQPEKGPRYLMHLNSDGSHTKGDGIPDRFSGSSSGAERYLTISSLQSEDEAEYYCQTWGTDIHWVFGGGTKLTVR
binds: all assays above
